Laboratory results: the RNAGym collection of RNA variant scans (doi:10.7554/elife.80360)

B1: Twister Ribozyme (parent)
chain: AACACUGCCAAUGCCGGUCCCAAGCCCGGAUAAAAGUGGAGGGGGCGG

Variants of: B1
Assay: self-cleavage, relative activity (ratio to wild type); higher = more cleavage; co-transcriptional

In order of rising self-cleavage:
1. AACACUGCCAAUGGCGGUCCCAUGCCCGGAUAAAAGUGGAGGGGGCGG [C14G A23U]  0.0448
2. AACACUGCCAAUGGCGGUCCCAAGCUCGGAUAAAAGUGGAGGGGGCGG [C14G C26U]  0.0493
3. AACACUGCCAAUGGCGGUCCCACGCCCGGAUAAAAGUGGAGGGGGCGG [C14G A23C]  0.0556
4. AACACUGCCAAUGGCGGUCCCAAGCCCGGAUAAAACUGGAGGGGGCGG [C14G G36C]  0.065
5. AACACUGCCAAUGGCGGUCCCAAGCCCGGAUAAAAAUGGAGGGGGCGG [C14G G36A]  0.0659
6. AACACUGCCAAUGGCGGUCCCAAGACCGGAUAAAAGUGGAGGGGGCGG [C14G C25A]  0.0733
7. AACACUGCCAAUGACGGGCCCAAGCCCGGAUAAAAGUGGAGGGGGCGG [C14A U18G]  0.0811
8. AACACUGCCAAUGGCGGUCCCAAGCCCGGAUAACAGUGGAGGGGGCGG [C14G A34C]  0.0831
9. AACACUGCCAAUGGCGGUCCUAAGCCCGGAUAAAAGUGGAGGGGGCGG [C14G C21U]  0.0834
10. AACACUGCCAAUGGCGGUCCCAACCCCGGAUAAAAGUGGAGGGGGCGG [C14G G24C]  0.0845
11. AACACUGCCAAUGGCGGUCCCGAGCCCGGAUAAAAGUGGAGGGGGCGG [C14G A22G]  0.0913
12. AACACUGCCAAUGGCGGUCCCAAGCCCGGAUAAAAGUGGAGGGGGGGG [C14G C46G]  0.101
13. AACACUGCCAAUGGCGGUCCCAAGCCCCGAUAAAAGUGGAGGGGGCGG [C14G G28C]  0.106
14. AACACUGCCAAUGGCGGUCGCAAGCCCGGAUAAAAGUGGAGGGGGCGG [C14G C20G]  0.111
15. AACACUGCCAAUGGCGGUCCCAAGCCCGGAUGAAAGUGGAGGGGGCGG [C14G A32G]  0.117
16. AACACUGCCAAUGGCGGUCCCAAGCCCGGAUCAAAGUGGAGGGGGCGG [C14G A32C]  0.12
17. AACACUGCCAAUGGCGAUCCCAAGCCCGGAUAAAAGUGGAGGGGGCGG [C14G G17A]  0.122
18. AACACUGCCAAUGGCGCUCCCAAGCCCGGAUAAAAGUGGAGGGGGCGG [C14G G17C]  0.124
19. AACACUGCCAAUGGCGGUCCCAAGCCCGGAUAAAUGUGGAGGGGGCGG [C14G A35U]  0.125
20. AACACUGCCAAUGGCUGUCCCAAGCCCGGAUAAAAGUGGAGGGGGCGG [C14G G16U]  0.138
21. AACACUGCCAAUGGCGGUCCCAAGCCCGGUUAAAAGUGGAGGGGGCGG [C14G A30U]  0.146
22. AACACUGCCAAUGACGGUCCCAAGCCCGGAUAAAAGUGCAGGGGGCGG [C14A G39C]  0.154
23. AACACUGCCAAUGGCGGUCCCAAGCCCGGAUAAUAGUGGAGGGGGCGG [C14G A34U]  0.159
24. AACACUGCCAAUGGCGGUCCCAAGCCCAGAUAAAAGUGGAGGGGGCGG [C14G G28A]  0.162
25. AACACUGCCAAUGGCGGUCCCAAGCCCGGAUAUAAGUGGAGGGGGCGG [C14G A33U]  0.172
26. AACACUGCCAAUGGCGGUCCCAAGCCCGGAUAAAAGUGGAGGGGGUGG [C14G C46U]  0.175
27. AACACUGCCAAUGGCGGUCCCAAGCCCGUAUAAAAGUGGAGGGGGCGG [C14G G29U]  0.192
28. AACACUGCCAAUGACGGUCCCAAGCCCGGAUAAAAGUGUAGGGGGCGG [C14A G39U]  0.198
29. AACACUGCCAAUGACGGUCCCAAGCCCGGAUAAAAUUGGAGGGGGCGG [C14A G36U]  0.221
30. AACACUGCCAAUGGCGGUCCCAAGCCCGCAUAAAAGUGGAGGGGGCGG [C14G G29C]  0.228
31. AACACUGCCAAUGGCGGUCUCAAGCCCGGAUAAAAGUGGAGGGGGCGG [C14G C20U]  0.25
32. AACACUGCCAAUGACGGUCCCAAGCCCGGAUAAAACUGGAGGGGGCGG [C14A G36C]  0.351
33. AACACUGCCAAUGACGGCCCCAAGCCCGGAUAAAAGUGGAGGGGGCGG [C14A U18C]  0.371
34. AACACUGCCAAUGGUGGUCCCAAGCCCGGAUAAAAGUGGAGGGGGCGG [C14G C15U]  0.401
35. AACACUGCCAAUGGCGGUUCCAAGCCCGGAUAAAAGUGGAGGGGGCGG [C14G C19U]  0.426
36. AACACUGCCAAUGACGGUCCCAAGCCCGGAUAAAAGUGGAGGGGGCCG [C14A G47C]  0.44
37. AACACUGCCAAUGACGGUCCCAAGCCCGGAUAAAAGUGGAGGUGGCGG [C14A G43U]  0.456
38. AACACUGCCAAUGACGGACCCAAGCCCGGAUAAAAGUGGAGGGGGCGG [C14A U18A]  0.485
39. AACACUGCCAAUGACGGUCCCAAGCCCGGAUAAAAGUGGAUGGGGCGG [C14A G41U]  0.55
40. AACACUGCCAAUGACGGUCCCAAGCCCGGAUAAAAGUGGAAGGGGCGG [C14A G41A]  0.591
41. AACACUGCCAAUGACGGUCCCAAGCCCGGAUAAAAGCGGAGGGGGCGG [C14A U37C]  0.619
42. AACACUGCCAAUGACGGUCCCAAGCCCGGAUAAAAAUGGAGGGGGCGG [C14A G36A]  0.651
43. AACACUGCCAAUGACGGUCCCAAGCCCGGAUAAAAGUGGAGGGGUCGG [C14A G45U]  0.698
44. AACACUGCCAAUGACGGUCCCAAGCCCGGAUAAAAGGGGAGGGGGCGG [C14A U37G]  0.725
45. AACACUGCCAAUGACGGUCCCAAGCCCGGAUAAAAGUCGAGGGGGCGG [C14A G38C]  0.861
46. AACACUGCCAAUGACGGUCCCAAGCCCGGAUAAAAGUGGAGGGGGCGA [C14A G48A]  0.868
47. AACACUGCCAAUGACGGUCCCAAGCCCGGAUAAAAGUAGAGGGGGCGG [C14A G38A]  0.874
48. AACACUGCCAAUGACGGUCCCAAGCCCGGAUAAAAGUGGAGGGUGCGG [C14A G44U]  0.883
49. AACACUGCCAAUGACGGUCCCAAGCCCGGAUAAAAGUGGAGGGGGCGU [C14A G48U]  0.887
50. AACACUGCCAAUGACGGUCCCAAGCCCGUAUAAAAGUGGAGGGGGCGG [C14A G29U]  0.903
51. AACACUGCCAAUGACGGUCCCAAGCCCGGACAAAAGUGGAGGGGGCGG [C14A U31C]  0.913
52. AACACUGCCAAUGACGGUCCCAAGCCCGGAGAAAAGUGGAGGGGGCGG [C14A U31G]  0.942
53. AACACUGCCAAUGACGGUCCCAAGCCCGCAUAAAAGUGGAGGGGGCGG [C14A G29C]  0.947
54. AACACUGCCAAUGACGGUCCCAAGCCCGAAUAAAAGUGGAGGGGGCGG [C14A G29A]  0.974
